Measurements: the Human Domainome abundance scans (Beltran et al. 2025)
± gives the uncertainty stated by the source.

B1: Kinesin-like protein KIF16B, residues 1213 to 1273; numbered along this chain, Q96L93 (parent)
chain: ETWTVFRRYSRFREMHKTLKLKYAELAALEFPPKKLFGNKDERVIAERRSHLEKYLRDFFS

Variants of: B1
Experiment: abundance fitness (aPCA) (normalised: wild type 0, dead -1); higher = more abundant; growth selection in yeast, the domain comes from the species named
Conditions: Homo sapiens

| Variant | abundance fitness |
| --- | --- |
| ETWTVFRRYSRFREMHKTLKLKYAELAACEFPPKKLFGNKDERVIAERRSHLEKYLRDFFS [L29C] | -0.228 ± 0.14 |
| ETWTVFRRYSRFREMHKTLKLKYAELAAKEFPPKKLFGNKDERVIAERRSHLEKYLRDFFS [L29K] | -0.226 ± 0.08 |
| ETWTVFRRYSRFREMHKTLKLKYAELAAWEFPPKKLFGNKDERVIAERRSHLEKYLRDFFS [L29W] | 0.223 ± 0.052 |
| ETWTVFRRYSRFREMHKTLKLKYAELAAMEFPPKKLFGNKDERVIAERRSHLEKYLRDFFS [L29M] | 0.337 ± 0.063 |
| ETWTVFRRYSRFREMHKTLKLKYAELAAEEFPPKKLFGNKDERVIAERRSHLEKYLRDFFS [L29E] | -0.883 ± 0.12 |
| ETWTVFRRYSRFREMHKTLKLKYAELAAYEFPPKKLFGNKDERVIAERRSHLEKYLRDFFS [L29Y] | -0.31 ± 0.32 |
| ETWTVFRRYSRFREMHKTLKLKYAELAAREFPPKKLFGNKDERVIAERRSHLEKYLRDFFS [L29R] | -0.192 ± 0.053 |
| ETWTVFRRYSRFREMHKTLKLKYAELAAHEFPPKKLFGNKDERVIAERRSHLEKYLRDFFS [L29H] | -0.38 ± 0.41 |
| ETWTVFRRYSRFREMHKTLKLKYAELAAAEFPPKKLFGNKDERVIAERRSHLEKYLRDFFS [L29A] | 0.172 ± 0.07 |
| ETWTVFRRYSRFREMHKTLKLKYAELAAFEFPPKKLFGNKDERVIAERRSHLEKYLRDFFS [L29F] | -0.188 ± 0.25 |
| ETWTVFRRYSRFREMHKTLKLKYAELAAVEFPPKKLFGNKDERVIAERRSHLEKYLRDFFS [L29V] | -0.033 ± 0.063 |
| ETWTVFRRYSRFREMHKTLKLKYAELAAIEFPPKKLFGNKDERVIAERRSHLEKYLRDFFS [L29I] | 0.427 ± 0.22 |
| ETWTVFRRYSRFREMHKTLKLKYAELAATEFPPKKLFGNKDERVIAERRSHLEKYLRDFFS [L29T] | -0.132 ± 0.073 |
| ETWTVFRRYSRFREMHKTLKLKYAELAASEFPPKKLFGNKDERVIAERRSHLEKYLRDFFS [L29S] | -0.513 ± 0.11 |
| ETWTVFRRYSRFREMHKTLKLKYAEWAALEFPPKKLFGNKDERVIAERRSHLEKYLRDFFS [L26W] | -0.033 ± 0.067 |
| ETWTVFRRYSRFREMHKTLKLKYAEDAALEFPPKKLFGNKDERVIAERRSHLEKYLRDFFS [L26D] | -0.573 ± 0.19 |
| ETWTVFRRYSRFREMHKTLKLKYAEGAALEFPPKKLFGNKDERVIAERRSHLEKYLRDFFS [L26G] | -0.667 ± 0.082 |
| ETWTVFRRYSRFREMHKTLKLKYAESAALEFPPKKLFGNKDERVIAERRSHLEKYLRDFFS [L26S] | -0.77 ± 0.14 |
| ETWTVFRRYSRFREMHKTLKLKYAEVAALEFPPKKLFGNKDERVIAERRSHLEKYLRDFFS [L26V] | -0.364 ± 0.079 |
| ETWTVFRRYSRFREMHKTLKLKYAENAALEFPPKKLFGNKDERVIAERRSHLEKYLRDFFS [L26N] | -0.694 ± 0.19 |
| ETWTVFRRYSRFREMHKTLKLKYAEEAALEFPPKKLFGNKDERVIAERRSHLEKYLRDFFS [L26E] | -0.819 ± 0.15 |
| ETWTVFRRYSRFREMHKTLKLKYAEAAALEFPPKKLFGNKDERVIAERRSHLEKYLRDFFS [L26A] | -0.661 ± 0.14 |

| Variant | abundance fitness |
| --- | --- |
| ETWTVFRRYSRFREMHKTLKLKYAEYAALEFPPKKLFGNKDERVIAERRSHLEKYLRDFFS [L26Y] | -0.306 ± 0.34 |
| ETWTVFRRYSRFREMHKTLKLKYAEHAALEFPPKKLFGNKDERVIAERRSHLEKYLRDFFS [L26H] | -0.946 ± 0.17 |
| ETWTVFRRYSRFREMHKTLKLKYAEFAALEFPPKKLFGNKDERVIAERRSHLEKYLRDFFS [L26F] | 0.158 ± 0.1 |
| ETWTVFRRYSRFREMHKTLKLKYAEQAALEFPPKKLFGNKDERVIAERRSHLEKYLRDFFS [L26Q] | -1.04 ± 0.21 |
| ETWTVFRRYSRFREMHKTLKLKYAETAALEFPPKKLFGNKDERVIAERRSHLEKYLRDFFS [L26T] | -0.851 ± 0.13 |
| ETWTVFRRYSRFREMHKTLKLKYAECAALEFPPKKLFGNKDERVIAERRSHLEKYLRDFFS [L26C] | -0.047 ± 0.19 |
| ETWTVFRRYSRFREMHKTLKLKYAEPAALEFPPKKLFGNKDERVIAERRSHLEKYLRDFFS [L26P] | -0.652 ± 0.14 |
| ETWTVFRRYSRFREMHKTLKLKYAEKAALEFPPKKLFGNKDERVIAERRSHLEKYLRDFFS [L26K] | -0.279 ± 0.16 |
| ETWTVFRRYSRFREMHKTLKLKYAEMAALEFPPKKLFGNKDERVIAERRSHLEKYLRDFFS [L26M] | -0.298 ± 0.085 |
| ETWTVFRRYSRFREMHKTLKLKYAERAALEFPPKKLFGNKDERVIAERRSHLEKYLRDFFS [L26R] | -0.872 ± 0.11 |
| ETWTVFRRYSRFREMHKTLKLKYAELAALWFPPKKLFGNKDERVIAERRSHLEKYLRDFFS [E30W] | 0.313 ± 0.071 |
| ETWTVFRRYSRFREMHKTLKLKYAELAALGFPPKKLFGNKDERVIAERRSHLEKYLRDFFS [E30G] | 0.153 ± 0.046 |
| ETWTVFRRYSRFREMHKTLKLKYAELAALDFPPKKLFGNKDERVIAERRSHLEKYLRDFFS [E30D] | 0.08 ± 0.068 |
| ETWTVFRRYSRFREMHKTLKLKYAELAALTFPPKKLFGNKDERVIAERRSHLEKYLRDFFS [E30T] | 0.108 ± 0.093 |
| ETWTVFRRYSRFREMHKTLKLKYAELAALAFPPKKLFGNKDERVIAERRSHLEKYLRDFFS [E30A] | 0.169 ± 0.052 |
| ETWTVFRRYSRFREMHKTLKLKYAELAALRFPPKKLFGNKDERVIAERRSHLEKYLRDFFS [E30R] | 0.018 ± 0.058 |
| ETWTVFRRYSRFREMHKTLKLKYAELAALYFPPKKLFGNKDERVIAERRSHLEKYLRDFFS [E30Y] | 0.322 ± 0.047 |
| ETWTVFRRYSRFREMHKTLKLKYAELAALKFPPKKLFGNKDERVIAERRSHLEKYLRDFFS [E30K] | -0.033 ± 0.084 |
| ETWTVFRRYSRFREMHKTLKLKYAELAALLFPPKKLFGNKDERVIAERRSHLEKYLRDFFS [E30L] | 0.476 ± 0.039 |
| ETWTVFRRYSRFREMHKTLKLKYAELAALQFPPKKLFGNKDERVIAERRSHLEKYLRDFFS [E30Q] | 0.036 ± 0.093 |
| ETWTVFRRYSRFREMHKTLKLKYAELAALHFPPKKLFGNKDERVIAERRSHLEKYLRDFFS [E30H] | -0.212 ± 0.11 |
